Test results reported in publication PMC4667285, “Octameric structure of Staphylococcus aureus enolase in complex with phosphoenolpyruvate” (Acta Crystallographica Section D: Biological Crystallography, 2015).

Key:
Sa_enolase (octamer) = target: T1, Sa_enolase (octamer) (Staphylococcus aureus, UniProt O69174); assay: isothermal titration calorimetry; assay type: binding
T1 construct: gene eno; C-terminal hexahistidine tag, pET-24a, E. coli BL21(DE3); residues 1-434 described; octamer fraction separated from dimer by size-exclusion chromatography

[1] = system: O=C(O)[C@@H](CO)OP(=O)(O)O; assay: purified protein; conditions: octamer, room temperature, 20 mM IMD–HCl, 400 mM KCl, 1 mM magnesium acetate pH 7.0
[2] = target: Sa_enolase D355A mutant (Staphylococcus aureus) (UniProt Q2G028); assay: SEC
[3] = target: Sa_enolase F139A mutant (Staphylococcus aureus) (UniProt Q2G028); assay: SEC
[4] = target: Sa_enolase G138A mutant (Staphylococcus aureus) (UniProt Q2G028); assay: SEC
[5] = target: Sa_enolase Y135A mutant (Staphylococcus aureus) (UniProt Q2G028); assay: SEC
[6] = target: Staphylococcus aureus enolase, wild type (Staphylococcus aureus) (UniProt Q2G028); assay: crystal structure; PEP-bound Sa_enolase, 1.6 Å, space group I4, co-crystallised with 2-PG (1:10); 0.2 M ammonium acetate, 0.1 M Tris-HCl pH 8.5, 25% PEG 3350, 16°C
[7] = target: Staphylococcus aureus enolase, wild type (Staphylococcus aureus) (UniProt Q2G028); assay: crystal structure; non-ligand-bound Sa_enolase, 2.45 Å, space group P42(1)2, a homodimer in the asymmetric unit, octamer by fourfold crystallographic symmetry; 0.01 M cobalt(II) chloride, 0.1 M MES pH 6.5, 1.8 M ammonium sulfate, 16°C

Compound: O=C(O)[C@@H](CO)OP(=O)(O)O [2-PG]
- Kd (Sa_enolase (octamer)): 15 ± 2.6 µM

Compound: Sa_enolase (octamer) (Staphylococcus aureus)
- Km [1]: 0.365 ± 0.030 × 10^−3 M
- Vmax [1]: 74.8 µM/min
- kcat [1]: 83 s⁻¹
- kcat/Km [1]: 227000 M⁻¹ s⁻¹

Compound: Sa_enolase D355A mutant (from UniProt Q2G028) (enzyme)
- stoichiometry N [2]: 2

Compound: Sa_enolase F139A mutant (from UniProt Q2G028) (enzyme)
- stoichiometry N [3]: 2

Compound: Sa_enolase G138A mutant (from UniProt Q2G028) (enzyme)
- stoichiometry N [4]: 2

Compound: Sa_enolase Y135A mutant (from UniProt Q2G028) (enzyme)
- stoichiometry N [5]: 2

Compound: Staphylococcus aureus enolase, wild type (from UniProt Q2G028) (enzyme)
- stoichiometry N [6]: 8
- stoichiometry N [7]: 8
